From patent US20230192818A1
Residue numbers refer to the chain shown, from its start.

B1: 13-5 (antibody, V domains shown)
VH: QVQLVESGGGVVQPGRSLRLSCAASGFIFRSYAMHWVRQAPGKGLEWVAVISYDGSSKYYADSVKGRFTISRDNSKNTLYLQMNSLRAEDTAVYYCARPLGGGYQDAFDIWGQGTLVTVSS
VL: EIVLTQSPATLSLSPGERATLSCRASQSIGSYLAWYQQKPGQAPRLLIYDVSNRATGIPARFSGSGSGTDFTLTISSFEPEDFAVYYCQQRHHWPPVTFGGGTKVEIK
B2: 13-1 (antibody, V domains shown)
VH: QVQLVESGGGVVQPGRSLRLSCAASGFTFSSYSMHWVRQAPGKGLEWVAVISYDGRNQYYADSVKGRFTISRDNSKNTLYLQMNSLRAEDTAVYYCAKGYGGNYYYMDGWGQGTLVTVSS
VL: EIVLTQSPATLSLSPGERATLSCRASQSVGDFLAWYQQKPGQAPRLLIYDTSNRATGIPARFSGSGSGTDFTLTISSLEPEDFAVYYCQQRSIRGTFGGGTKVEIK
B3: 13-3 (antibody, V domains shown)
VH: QVQLVESGGGVVQPGRSLRLSCAASGFSFNNHAMHWVRQAPGKGLEWVAVISYDGSDKYYADSVKGRFTISRDNSKNTLYLQMNSLRAEDTAVYYCARNLLRGYGMDVWGQGTLVTVSS
VL: DIQMTQSPSSLSASVGDRVTITCRASQSIGDYLNWYQQKPGKAPKLLIYEASSLQSGVPSRFSGSGSGTDFTLTISSLQPEDFATYYCLHTYLPPYSFGQGTKVEIK
B4: 13-4 (antibody, V domains shown)
VH: QVQLVESGGGVVQPGRSLRLSCAASGFAFDDYAMHWVRQAPGKGLEWVAVISYDGSNKYYADSVKGRFTISRDNSKNTLYLQMNSLRAEDTAVYYCATLGYGDYPDYWGQGTLVTVSS
VL: B3 VL with G30T, D31R, E50A, L89Q, H90Q, L93N, P94F, Y96H, S97T
B5: 12-19 (antibody, V domains shown)
VH: QVQLVESGGGVVQPGRSLRLSCAASGFAFSSYAMHWVRQAPGKGLEWVAVISYDGTYEYYADSVKGRFTISRDNSKNTLYLQMNSLRAEDTAVYYCARSLGGSYFSGMDVWGQGTLVTVSS
VL: B1 VL with G30S, S31R, F78L, R91S, H92S, H93N, P96L, V97F
B6: 12-29 (antibody, V domains shown)
VH: QVQLVESGGGVVQPGRSLRLSCAASGFSFSNYGMHWVRQAPGKGLEWVAVISYDGNNKYYADSVKGRFTISRDNSKNTLYLQMNSLRAEDTAVYYCARSKGGSYYGPFDDWGQGTLVTVSS
VL: B1 VL with S28I, G30S, V51T, F78L, Q90V, H92S, H93N, V97L
B7: 12-28 (antibody, V domains shown)
VH: B5 VH with A28T, Y57N, V64E, S99A, L100H
VL: EIVLTQSPATLSLSPGERATLSCRASQSVRHHLAWYQQKPGQAPRLLIYDASNRATGIPARFSGSGSGTDFTLTISSLEPEDFAVYYCQQSGSWPLTFGGGTKVEIK
B8: 12-20 (antibody, V domains shown)
VH: B6 VH with S30G, N31G, N56S, D110Y
VL: B1 VL with I29L, S31N, V51S, F78L, H92N, H93T, P96G
B9: 12-39 (antibody, V domains shown)
VH: B5 VH with A28T, T56N, Y57H, S99A, L100H, G101S, G107H, M108F, V110Y
VL: EIVLTQSPATLSLSPGERATLSCRASESISTYLAWYQQKPGQAPRLLIYDASNRATGIPARFSGSGSGTDFTLTISSLEPEDLAVYYCQQRRNSLTFGGGTKVEIK
B10: 12-22 (antibody, V domains shown)
VH: B6 VH with S28T, N31S, N57H, K58E, S99P, G101S, Y105V, G106S, P107Y, D110Y
VL: B7 VL with Q90E, S91R, G92S, S93D, L96I
B11: 12-26 (antibody, V domains shown)
VH: QVQLVESGGGVVQPGRSLRLSCAASGFTFSNYAMHWVRQAPGKGLEWVAVISYDGSNEYYADSEKGRFTISRDNSKNTLYLQMNSLRAEDTAVYYCAKSGSGSYFSPFDYWGQGTLVTVSS
VL: B9 VL with E27Q, I29V, Y32S, A51I, L83F, N93S, S94G
B12: 12-24 (antibody, V domains shown)
VH: QVQLVESGGGVVQPGRSLRLSCAASGFTFSNFPMHWVRQAPGKGLEWVAVISYDGNNKYYADSVKGRFTISRDNSKNTLYLQMNSLRAEDTAVYYCAKDHGDHYFDYWGQGTLVTVSS
VL: B2 VL with V29F, F32S, T51A, R94P, G95I
B13: 12-42 (antibody, V domains shown)
VH: B2 VH with S30G, S33G, R56S, N57H, Q58K, K98R, G99A, Y100L, M107F, G109Y
VL: B2 VL with G30D, D31S, F32R, I93S, R94N, G95W
B14: 12-37 (antibody, V domains shown)
VH: QVQLVESGGGVVQPGRSLRFSCAGTGFTFSSYAMHWVRQAPGKGLEWVAVISYDGSNQYYADSVKGRFTISRDNSKNTLYLQMNSLRAEDTAVYYCARSRSGSYLAYFDYWGQGTLVTVSS
VL: B9 VL with V3E, I29V, T31E, Y32S, L83F, R92T, N93H, S94G, L95V
B15: 12-32 (antibody, V domains shown)
VH: B11 VH with S30G, N31T, S56N, E58K, E64V, S99T, G100M, P107A, Y110I
VL: EIVLTQSPATLSLSPGERATLSCRASQSIGSYLAWYQQKPGQAPRLLIYDVSNRATGIPARFSGSGSGTDFTLTISSLEPEDFAVYYCQQRDSFTFGGGTKVEIK
B16: 12-34 (antibody, V domains shown)
VH: B1 VH with L100S, G103S, Q105F, A107P, I110Y
VL: B15 VL with I29V, S31N, Y32F, V51A, Q90H, D92R, S93L, F94L
B17: 12-21 (antibody, V domains shown)
VH: B1 VH with I28S, R30G, S31G, A33G, S57N, L100K, G103N, Q105W, D106N
VL: EIVLTQSPATLSLSPGERATLSCRASQSVNSDLAWYQQKPGQAPRLLIYDASNRATGIPARFSGSGSGTDFTLTISSLEPEDFAVYYCQERSLFGGGTKVEIK
B18: 12-27 (antibody, V domains shown)
VH: B1 VH with I28S, R30G, S31G, A33G, S57T, L100R, G103S, Q105K
VL: B7 VL with Q27D, S28T, R30S, H31S, H32Y, A51T, S91R, G92A, T97S
B19: 12-36 (antibody, V domains shown)
VH: B6 VH with S30N, N56S, K58D, S99P, K100N, G101S, Y105S, G106N, P107Y, D110Y
VL: B7 VL with S28G, V29I, R30S, H31T, H32Y, S91R, G92R, S93R, L96P
B20: 12-43 (antibody, V domains shown)
VH: B14 VH with F20L, G24A, T25S, T28I, A33G, Q58E, S99P, A106S, Y107A
VL: B7 VL with R30G, H31K, H32S, A51T, S91R, W94F
B21: 12-31 (antibody, V domains shown)
VH: B1 VH with I28T, R30S, S31Y, A33T, I51T, S57N, G103S, Q105F, D106A
VL: B15 VL

What follows are binders tested against biotinylated SARS-CoV-2 S1 variant P.1 (Example 5) (SARS-CoV-2) (UniProt P0DTC2) (assay: phage ELISA screening).

Going from B1 to B2, the ELISA rises from 10.3 to 22.2.

Going from B3 to B4, the ELISA falls from 19.5 to 18.9.

These binders were tested against biotinylated SARS-CoV-2 S1 variant B.1.351 (Example 5) (SARS-CoV-2) (UniProt P0DTC2) (assay: phage ELISA screening).

Going from B5 to B6, the ELISA falls from 13.8 to 7.55.

Going from B7 to B8, the ELISA rises from 8.63 to 13.3.

Going from B9 to B10, the ELISA rises from 5.09 to 10.5.

Going from B11 to B12, the ELISA rises from 9.05 to 9.63.

Going from B13 to B14, the ELISA rises from 4.93 to 5.5.

Compared with B15, B16 is lower in ELISA: 6.88 for the first, 5.81 for the second.

Compared with B17, B18 is lower in ELISA: 11.7 for the first, 8.83 for the second.

Going from B19 to B20, the ELISA falls from 5.51 to 4.82.

With B21 the ELISA was 7.01.
